How the values were obtained:
PDGFR = test: Effect of PTP1B overexpression on PDGF-stimulated PIP3 increase in CHO-PDGFR cells; type: cell-based, Chinese hamster; conditions: PTP1B overexpressed
Source text: For further dissecting the PIP3 dynamics in the endomembranes, protein tyrosine phosphatase-1B (PTP1B) was overexpressed in CHO-PDGFR cells by adenovirus-mediated gene transfer. The PTP1B is localized exclusively on the cytoplasmic surface of the ER (Frangioni, J. V., Beaham, P. H., Shifrin, V., Jost, C. A. and Neel, B. G. (1992) Cell, 68, 545-560). It has recently been reported that upon ligand stimulations, receptor tyrosine kinases, including PDGFR, are dephosphorylated and inactivated by the PTP1B on the cytoplasmic surface of the ER after the receptors activated at the cell surface were internalized by endocytosis (Haj, F. G., Verveer, P. J., Squire, A., Neel, B. G. and Bastiaens, P. I. H. (2002), Science, 295, 1708-1711).
The inventors expected the overexpressed PTP1B to selectively dephosphorylate the endocytosed PDGFR and to inhibit the recruitment and activation of PI3K by the PDGFR on the cytoplasmic surface of ER, without affecting the PDCFR in the plasma membrane.

[1] = tested on: clathrin-mediated endocytosis of PDGFR; test: Effect of DynK44A expression on PIP3 increase in CHO-PDGFR cells; type: cell-based, Chinese hamster
Procedure: To explore the molecular mechanism, which underlies the PIP3 increase in the endomembranes, the effect on the PIP3 increase of a dominant-negative mutant of dynamin (DynK44A), in which the lysine 44 is substituted by an alanine, was assessed.
The dynamin is a guanosine triphosphatase (GTPase) that controls the clathrin-mediated endocytosis (Qualmann, B., Kessels, M. M. and Kelly, R. B. (2000) J. Cell Biol., 150, F111-F116) of receptor tyrosine kinases, including PDGFR. DynK44A lacks the GTPase activity and inhibits a clathrin-mediated endocytosis of PDGFR.
The DynK44A was expressed in CHO-PDCFR cells by adenovirus-mediated gene transfer, the cells were stimulated with PDGF (50 ng/mL) and time course of CFP/YFP in endomembranes was measured as shown in FIG. 11. […] On the other hand, in the plasma membrane, the FRET response of Fllip-pm was immediately observed upon PDGF stimulation even in the presence of the DynK44A expression, as observed in the absence of the DynK44A expression (FIG. 12).

B1: PTP1B: protein tyrosine phosphatase-1B, overexpressed by adenovirus-mediated gene transfer (protein, UniProt P18031 1-435, looked up)
Tyrosine-protein phosphatase …: MEMEKEFEQIDKSGSWAAIYQDIRHEASDFPCRVAKLPKNKNRNRYRDVSPFDHSRIKLHQEDNDYINASLIKMEEAQRSYILTQGPLPNTCGHFWEMVWEQKSRGVVMLNRVMEKGSLKCAQYWPQKEEKEMIFEDTNLKLTLISEDIKSYYTVRQLELENLTTQETREILHFHYTTWPDFGVPESPASFLNFLFKVRESGSLSPEHGPVVVHCSAGIGRSGTFCLADTCLLLMDKRKDPSSVDIKKVLLEMRKFRMGLIQTADQLRFSYLAVIEGAKFIMGDSSVQDQWKELSHEDLEPPPEHIPPPPRPPKRILEPHNGKCREFFPNHQWVKEETQEDKDCPIKEEKGSPLNAAPYGIESMSQDTEVRSRVVGGSLRGAQAASPAKGEPSLPEKDEDHALSYWKPFLVNMCVATVLTAGAYLCYRFLFNSNT
PDGFR; Fllip-em, PDGF 50 ng/mL
  PDGF-stimulated PIP3 increase in endomembranes: completely lost
PDGFR; monitored with Fllip-pm
  PIP3 increase in the plasma membrane upon PDGF stimulation: not affected

B2: DynK44A: dominant-negative mutant of dynamin in which the lysine 44 is substituted by an alanine (protein, UniProt Q05193 1-864, looked up, variant K44A)
Dynamin-1: MGNRGMEDLIPLVNRLQDAFSAIGQNADLDLPQIAVVGGQSAGASSVLENFVGRDFLPRGSGIVTRRPLVLQLVNATTEYAEFLHCKGKKFTDFEEVRLEIEAETDRVTGTNKGISPVPINLRVYSPHVLNLTLVDLPGMTKVPVGDQPPDIEFQIRDMLMQFVTKENCLILAVSPANSDLANSDALKVAKEVDPQGQRTIGVITKLDLMDEGTDARDVLENKLLPLRRGYIGVVNRSQKDIDGKKDITAALAAERKFFLSHPSYRHLADRMGTPYLQKVLNQQLTNHIRDTLPGLRNKLQSQLLSIEKEVEEYKNFRPDDPARKTKALLQMVQQFAVDFEKRIEGSGDQIDTYELSGGARINRIFHERFPFELVKMEFDEKELRREISYAIKNIHGIRTGLFTPDMAFETIVKKQVKKIREPCLKCVDMVISELISTVRQCTKKLQQYPRLREEMERIVTTHIREREGRTKEQVMLLIDIELAYMNTNHEDFIGFANAQQRSNQMNKKKTSGNQDEILVIRKGWLTINNIGIMKGGSKEYWFVLTAENLSWYKDDEEKEKKYMLSVDNLKLRDVEKGFMSSKHIFALFNTEQRNVYKDYRQLELACETQEEVDSWKASFLRAGVYPERVGDKEKASETEENGSDSFMHSMDPQLERQVETIRNLVDSYMAIVNKTVRDLMPKTIMHLMINNTKEFIFSELLANLYSCGDQNTLMEESAEQAQRRDEMLRMYHALKEALSIIGDINTTTVSTPMPPPVDDSWLQVQSVPAGRRSPTSSPTPQRRAPAVPPARPGSRGPAPGPPPAGSALGGAPPVPSRPGASPDPFGPPPQVPSRPNRAPPGVPSRSGQASPSRPESPRPPFDL
[1]; DynK44A overexpression
  PIP3 increase in the endomembranes by insulin and epidermal growth factor: inhibited
[1]; overexpression of DynK44A, PDGF 50 ng/mL
  PDGF-stimulated PIP3 increase in the endomembranes: completely inhibited
[1]; overexpression of DynK44A, PDGF 50 ng/mL, Fllip-pm
  PDGF-stimulated PIP3 increase in the plasma membrane: not affected
